We go through one molecule from article PMC11838195.

The target of the data set is T1, MBP-METTL7A WT (human, UniProt Q9H8H3 1-244).
T1 sequence: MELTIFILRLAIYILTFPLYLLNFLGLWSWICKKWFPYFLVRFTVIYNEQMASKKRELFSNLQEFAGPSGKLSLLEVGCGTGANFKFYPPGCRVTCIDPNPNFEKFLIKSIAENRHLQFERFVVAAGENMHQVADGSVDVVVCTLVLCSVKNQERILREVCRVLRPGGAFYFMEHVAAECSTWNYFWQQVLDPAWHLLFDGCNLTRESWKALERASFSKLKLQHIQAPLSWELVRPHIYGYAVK
Briefly: EMSA. On the technique in general: Mobility shift assays separate free from complexed probe on a gel.

B1: 60 bp dsDNA (dsDNA)
DNA 1: ATTCTTCCGAGTTTTTTCCTCATCTCACTTCCAATACAGAAAGCTTGCCCCGCCCTTCCT
DNA 2: AGGAAGGGCGGGGCAAGCTTTCTGTATTGGAAGTGAGATGAGGAAAAAACTCGGAAGAAT
Take B1: the binding result was “binds”.
